The results in this text go back to patent US20250388597A1, “BIFUNCTIONAL PHOTOCROSSLINKING PROBES FOR COVALENT CAPTURE OF PROTEIN-NUCLEIC ACID COMPLEXES IN CELLS” (UNIVERSITY OF SOUTHERN CALIFORNIA, priority 2022, published 2025).

In data set [1] the target is Nkx2.5 DNA binding domain (homeodomain) (Homo sapiens, UniProt P52952 P52952:138-197). Description: SPB-AAD, SPB-PEG4-AAD or SPB-Spermidine-AD + UV365 photocrosslinking, SDS-PAGE; none with formaldehyde or UV alone. Conditions: label: 5'6-FAM.
Nkx2.5 DNA binding domain (homeodomain), sequence (P52952 138-197, one chain of several): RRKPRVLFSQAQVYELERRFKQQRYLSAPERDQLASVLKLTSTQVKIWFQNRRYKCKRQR
For data set [2], the target named is T1, MEF2A DNA binding domain (Homo sapiens, UniProt Q02078 Q02078:2-95). In words: SPB-AAD 100 uM + UV365 photocrosslinking, SDS-PAGE; no crosslink without probe. The note with it: chain copies: 2; label: 5'6-FAM.
T1 sequence (Q02078 2-95, one chain of several): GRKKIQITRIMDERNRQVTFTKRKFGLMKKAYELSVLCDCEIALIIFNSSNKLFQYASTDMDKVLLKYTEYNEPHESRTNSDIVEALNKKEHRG
Data set [3] has as its target T2, NFAT1 DNA binding domain (Homo sapiens, UniProt Q13469 Q13469:399-676).
T2 sequence: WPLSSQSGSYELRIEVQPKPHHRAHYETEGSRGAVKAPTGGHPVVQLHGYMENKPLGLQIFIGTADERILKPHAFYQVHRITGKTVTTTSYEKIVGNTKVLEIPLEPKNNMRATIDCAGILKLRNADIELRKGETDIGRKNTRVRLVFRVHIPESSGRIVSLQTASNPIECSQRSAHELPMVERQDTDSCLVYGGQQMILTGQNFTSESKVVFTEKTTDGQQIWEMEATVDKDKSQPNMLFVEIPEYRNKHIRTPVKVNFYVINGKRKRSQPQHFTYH
In words: SPB-AAD 100 uM + UV365 photocrosslinking, SDS-PAGE. Here is the method: The UV illumination (as indicated by a positive sign) was carried out using a LED Chip (21.4 mm×21.4 mm, 365-370 nm, 30 Watt, sample distance 2 cm, exposure time 2-15 min at 4 degree C., here the exposure time is 15 min). Half of the binding reaction (7.5 μl) was run on a 10% PAGE 0.5×TBE gel and visualized by Cy5 fluorescence on DNA. The small amount of single stranded DNA is due to incomplete annealing. The higher smearing bands are most likely non-specific protein complexes. Neither of these experimental imperfections affected the main conclusion of this experiment because the double stranded-DNA bands and the specific NFAT-DNA complex bands (the middle sharp bands) are well defined and can be monitored without the interference of the other bands.
(§1) FIG. 12D depicts the other half of binding reaction from the above experiments (FIG. 12C) were added SDS loading dye (2% SDS), boil for 10 min, and run on SDS gel (4-15% gradient gel). The gel was visualized by Cy5 fluorescence for DNA.
FIG. 12E depicts further characterization of BFPX crosslinking of NFAT1/DNA complexes using different DNA substrates and staining techniques. […] The reactions were then analyzed by SDS PAGE under denaturing condition as described in FIG. 12D. […]

The target in another data set is p53 DNA binding domain (Homo sapiens, UniProt P04637 P04637:102-292). In words: SPB-AAD, SPB-PEG4-AAD or SPB-Spermidine-AD + UV365 photocrosslinking, SDS-PAGE. Conditions: chain copies: 4 stated; label: 5'-Cy5.
p53 DNA binding domain, sequence (P04637 102-292, one chain of several): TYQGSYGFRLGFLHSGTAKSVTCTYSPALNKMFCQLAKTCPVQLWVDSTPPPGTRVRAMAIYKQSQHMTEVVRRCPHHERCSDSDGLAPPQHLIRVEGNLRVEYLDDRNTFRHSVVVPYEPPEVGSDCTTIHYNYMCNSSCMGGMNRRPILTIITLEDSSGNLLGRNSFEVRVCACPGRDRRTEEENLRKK
For data set [4], the target named is T2, NFAT1 DNA binding domain. Description: EMSA; 20 mM Hepes pH 7.6, 150 mM NaCl, 1 mM DTT, 12% glycerol, RT; formaldehyde diminished binding, BFPX probes did not; also photocrosslinked. Conditions: label: 5'-Cy5 (or 5'6-FAM). As for the experimental part: FIG. 12C depicts Native EMSA assay of the effect of Formaldehyde (FA), BFPX probe (SPB-AAD, SPB-PEG4-AAD, and SPB-Spermidine-AD) at various concentrations, and UVA (365 nm) on the DNA binding by NFAT1. The binding reactions were performed in a buffer of 20 mM Hepes pH 7.6, 150 mM NaCl, 1 mM DTT, 12% glycerol. Typically protein and DNA are mixed to bind at room temperature for 30 min, followed by addition of BFPX probes for an additional 15 min and then UV illumination. In the case of FA treatment, the reaction time is 10 min at room temperature and then quenched by 250 mM glycine. […] Half of the binding reaction (7.5 μl) was run on a 10% PAGE 0.5×TBE gel and visualized by Cy5 fluorescence on DNA. […] Neither of these experimental imperfections affected the main conclusion of this experiment because the double stranded-DNA bands and the specific NFAT-DNA complex bands (the middle sharp bands) are well defined and can be monitored without the interference of the other bands.
as §1

The target in data set [5] is T1, MEF2A DNA binding domain. In words: 4AMT-SDAD + UV365 photocrosslinking, reversed by TCEP. Conditions: chain copies: 2; label: 5'6-FAM.

B1: Nkx2.5 site 19-mer (dsDNA)
DNA 1: ACTATTTTAAGAACGTGCT
DNA 2: AGCACGTTCTTAAAATAGT
As for B1, the binding result in data set [1] is “binds”.

B2: MEF2 consensus site DNA (44-mer; only the core site printed) (dsDNA)
DNA 1: CTATAAATAG
DNA 2: CTATTTATAG
Regarding B2, in the data set with MEF2A DNA binding domain [2], the binding result is recorded as “binds”.

B3: c1 NFAT 21-mer (dsDNA)
DNA 1: TTCCACAGAGGAAAATTTGTT
DNA 2: AACAAATTTTCCTCTGTGGAA
As to B3, the binding result in the data set with NFAT1 DNA binding domain [3] is “binds”.

B4: p53 tetramer site 37-mer (dsDNA)
DNA 1: GCTAGCGTAGCAGGCATGCCTAGGCATGCCTGCTACG
DNA 2: CGTAGCAGGCATGCCTAGGCATGCCTGCTACGCTAGC
Regarding B4, the binding result in the data set with p53 DNA binding domain is listed as “binds”.

B5: c2 NFAT 16-mer (dsDNA)
DNA 1: GTAGAGGAATTTCCTA
DNA 2: TAGGAAATTCCTCTAC
Consider B5, for which the binding result with NFAT1 DNA binding domain [3] is on record as “binds”.

B6: ARRE2 27-mer (dsDNA)
DNA 1: CCATAGAGGAAAATTTGTTTCATACAG
DNA 2: CTGTATGAAACAAATTTTCCTCTATGG
Take B6: the binding result in the data set with NFAT1 DNA binding domain [4] was “binds”.

B7: MEF2 site 16-mer (only the core site printed) (dsDNA)
DNA 1: CTATAAATAG
DNA 2: CTATTTATAG
Take B7: the binding result with MEF2A DNA binding domain [5] is given as “binds”.
